Laboratory results taken from the nanobody polyreactivity screen of Harvey et al. (2022).

Assay: yeast display, Sf9 membrane polyspecificity reagent, FACS + sequencing; frameworks hold sequencing errors
In short: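 After 36–48 hours of galactose induction, yeast (Saccharomyces cerevisiae BJ5465) displaying a synthetic nanobody library were stained at 4 °C for 1 hour with 10% biotinylated, detergent-solubilized Sf9 membrane reagent. Streptavidin microbeads enriched the stained cells before FACS sorting into low and high (top ~1%) gates on anti-HA and streptavidin fluorescence. Each clone's polyreactivity label reflects its gate of origin.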

Sequence | polyreactivity (PSR sort gate)
QVQLVESGGGLVQAGGSLRLSCAASGFIFKRYAMGWYRQAPGKVRELGAAITGSGGSTYYADSVKGRFTISRDNAKNTVYLQMNSLKPEDTAVYYCARGNGGSLDYWGQGTQVTVSS | high polyreactivity
QVQLVESGGGLVQAGGSLRLSCAASGFTFTYYTMGWYRPAPGKERELVAGISRSGGSTYYADSVKGRFTISRDNAKNTVYLQMNSLKPEDTAVYYCFPGKTRLYGYWGQGTQVTVSS | high polyreactivity
QVQLVESGGGLVQAGGSLPLSCAASGFIFTSNAMGWYRQAPGKERELVASISGNGGRTNYADSVKGRFTISRDNAKNTVYLQMNSLKPDDTAVYYCAARVRRFLNRVSRYPHDYWGQGTQVTVSS | high polyreactivity
QVQLVESGGGLVQAGGSLRLSCAASGLTFPTYAMRWYRQAPGKERELVAAISRIGGRTYYADSVKGRFSISRDNAKNTVYLQMNSLKPEDTAVYYCAADGIKGGVEYDYWGQGTQVTVSS | high polyreactivity
QVQLVESGGGLVEAGGSLRLSGAASGSIFRYYSMGWYRQAPGKERELVAAITYSGGTTYYADSVKGRFTISRDNAKNTVYLQMNSLKPEDTAVYYCAATFQANYFSGYYTVYLSDYRGQGTQVTVSS | low polyreactivity
QVQLVESGGALVQAGGSLRLICAASGRIFQRYTKGWYRQAPGKERELVAAITYSGGRTYYADSVKGRFTISRDNAKNTVYLQMNSLKPEDTAVYYCYAAYFNWYTHVWNDYWGQGTQVTVSS | high polyreactivity
QVQLVESGGGLVQAGGSLRLSCAASGRIFGDYAMGWYRQAPGKERELVAAISWSDGSTYYADSVKGRFTISRDNAKNTVYLQMNSLKPEDTAVYYCAAYGWGYRYVDVVVSDFYYWGQGTQVTVSS | low polyreactivity
QVQLVESGGGLVQAGGSLRLSCAASGSTFDDYAMGWYRQAPGKERELVAAISSAGTTYYADSVKGRFTISRDNAKNTVYLQMNSLKPEDTAVYYCNTVLYPVWYVNFSLRYRYDYYWGQGTQVTVSS | high polyreactivity
QVQLVESGGGLVQAGGSLRISCAASGFTLRVNAMGWYRQAPGKERELVAAISDSGGDTYYSNSVKGRFTISRDNAKNTVYLQMNSLKPEDTAVYYCAADDGSENDYWGQGTQVTVSS | low polyreactivity
QVQLVESGGGLVQAGGSLRLSCAASGGTFYGYAAMGWYRQAPGKERELVAAISRSGGRTYYADSVKGRFTISRDNAKNTVYLQMNSLKPEDTAVYYCAARRAYSRPPRDYWGQCTQVTVSS | high polyreactivity
QVQLVESGGGLVQAGGSLRLSCAASGFIFHYYAMGRYRQAPGKERELVAAISWNGGSTNYSDSVKGRFTISRDNAKNTVYLQMNSLKPEDTAVYYCATTDPYYDVDYWGQGTQVTVSS | low polyreactivity
QVQLVESGGGLVQAGGSLRLSCAASGRIFRGYAMGWYRQAPGKERELVAAIDRVGRTKYADSVKGRFTISRDNAKNTVYLQMNSLKPEDTAVYYCAAKASRVDWGYGYWGQGTQVTVSS | high polyreactivity
QVQLVESGGGLVQAGGSLRLSCAASGRIFGVYAMGWYRQAPGKDREFVASITRGGGRTYYADSVKGRFTISRDNAKNTVYLQMNSLKPEDTAVYYCNAVVNSYPYYYWGQGTQVTVSS | high polyreactivity
QVQLVESGGGLVQAGGRRRLSCAASGSTYNPYPMGWYRQAPGKERELLATITWRGTSTYYADSVKGRFTISRDNAKYTVYLQMNSLKPEDTAVYYGAKGFVYNYPKTYKSYSTYYYWGQGTQVTVSS | high polyreactivity
QVQLVESGGGLVQAGGSLRLSCAASGIIFYYYAMGWYRQAPGKERELVAAISTSGGRTYYADSVKGRFTISRDNAKSTVYLQMNSLKPEDTAVYYCAKDFWYVTGGWSSGLDYWGQGTQVTVSS | low polyreactivity
QVQLVESGGGLVQAGGSLRLSCAASGITFFRNAMGWYRQAPGKERELVAGISTTGGRTYYADSVKGRFTISRDKAKNTVYLQMNSLKPEDTAVYYCNTLVPRAGREYDYWGQGTQVTVSS | high polyreactivity

Sequence | polyreactivity (PSR sort gate)
QVQLVESGGGLVQAGGSLRLSCPASGSIFPTYAMGRYRQAPGKERELVAAITTSGGNTFYADSVKGRFTISRDNAKNTVYLQMNRLKPEDTAVYYCAAYYSPYTVEYDYWGQGTLVTVSS | low polyreactivity
QLQLQESIGGLVQAGGSLRMSCAASGTIFHFHIMGWYRQAPGKEREFVAAISYGTSTYYADSVKGRFTISRDNAKNTVYLHMNSQKPEDTAVYYCAVYDYLEVYCWYWGQGTQVTLSS | low polyreactivity
QVQLVESGGGLVQAGGSLRLSCAASGRIFYLNAMGWYRQAPGKERELVATISSGGSTNYADSVKGRFTISRDNAKNTVYLQMNSLKPEDTAVYYCARKSLRYSYVYRDYWGQGTQVTVSS | low polyreactivity
QVQLVESGGGLVQAGGSLRLSCAASGSIFTYYAMGWYRQAPGKERELVADIRWSGGSTYYADSVKGRFTISRDNAKNTVYLQMNSLKPEDTAVYFCNARYYSYWPIYNFDYWGQGTQVTVSS | low polyreactivity
QVQLVESGGGLVQAGGSLRLSCASSGYTFTVNAMGWYRQAPGKERELVAAISGSGGSTYYADSVKGRFTISRDNAKNTVYLQMNSLKPEDTAVYYCAADYWYYYWPLDYWGQGTQVTVSS | high polyreactivity
QVQLVESGGGLVQAGGSLRLSCAASGIIFLNYVMGWYRQAPGKERELVAAITTSGASTYYADSVKGRFTISRDNAKNTVYLQMNSLKPEDTAVYYCAAVFRHARYRYDYWGLGTQVTVSS | high polyreactivity
QVQLVESGGGLVQAGGSLRLSCAASGRIFALNVMGWYRQAPGKERELVAAITWSSGRTYYADSVKGRFTISRDNAKNTVYLQMNSLKPEDTAVYYCAAAFRPRAIELSYYYWGQGTQVTVSS | high polyreactivity
QVQLVESGGGLVQAGGSLRLSCAASGRTFWYYDKGWYRQAPGKERELVAAITNGDRTYYADSVKGRFTISRDNAKNTVYLQMNSLKPEDTAVYYCAKETWGTRHDYWGQGTQVTVSS | high polyreactivity
QVQLVESGGGLVQGGGSLRLSCAASGRTFRYYAMGWYRQAPGKERELVAAITRSGGSTYYADSVKGRFTISRDNAKYTVYLQMNSLKPEDTAVYYCAASRFTSYGIDYDYWAQGTQVTVSS | high polyreactivity
QVQLVESGGGLVQAGGSLRLSCAASGRIFSYYVMGWSRQAPGKERELVAAISYRGGGTYYADSVKGRFTISRDNAKNTVYLQMNSLKPEDTAVYYCNADTYSNTYRAYDYWGQGTQVTVSS | low polyreactivity
QVQLVESGGGLLQAGGSLRLSCAASGFTIYRYAMGWYRQAPGKERELVGAITGGGGSTYYADSVKGRFTISRDNAKNTVYLQMNSLKPEDTAVYYCAVDVYHKGQYRWSYVYWGQGTQVTVSS | low polyreactivity
QVQLVESGGGLVQAGGSLRLSCAASGFTFNRYAMGWYRQAPGKERELVARITRGGSTKYADSVKGRFTISRDNAKNTVYLEMNSLKPEDTAVYYCAADYGGFLVYDYWGQGTQVTVSS | high polyreactivity
QVQLVESGGGLVQAGGILRLSCAASGRTFMYYAMGWYRQAPGKDMELVAAIRRGSSTYYADSVKGRFTISRDNAKYSVYLQMNSLKPEDTAVYYCAARGRYRIGQGRYGKRYDYWGHGTQVTVSS | high polyreactivity
QVQLVESGGGLVQAGGSLRLSCAPSGRIFTEYVMGWYRQAPGKERELVAAAITRGGSTNYADSVKGRFTISRDNAKNTVYLQMISLKPEDTAVYYFNKDDWPFSRQLYTGKYDSWGQGTQVTVSS | low polyreactivity
QVQLVESVVGLVQAGVSLRLSCAASGSIFEQYAMGWYRQAPGKERELVAAISKRGTSTYYADSVKGRFTISRDNAKNTVYLQINSLKPEDNAVYDCAATNRWYYRAAASVYAFGYWGLGTQVTVSS | high polyreactivity
